{
  "source": "patent US20240158515A1",
  "about": "(Regeneron, published 2024)",
  "binders": {"B1": {"name": "H4H30063P (antibody, human IgG4 S228P, kappa, V domains shown)", "VH": "QVQLQESGPGLVKPSETLSLTCTVSGDSINSYFWSWIRQLPGKELEWIGHIYSSGSTRYNPSLQSRVTISIDTSKNQFSLKLSSVTAADTAVYYCARGASAVDYWGQGTLVTVSS", "VL": "EIVLTQSPGTLSLSPGERATLSCRTSQSISSGYLAWYQQKPGQAPRLLIYGASRRATGIPDRFSGSGSGTDFTLTISRLEPEDFVVYYCQQYGSSPYTFGQGTKLEIKR", "notes": "HCVR 2, LCVR 10; also called REGN15684"}},
  "key": {"[1]": {"biological_target": "T1, human FGFR3b expressed with a C-terminal murine Fc tag (hFGFR3b.mFc) (human)", "T1 construct": "called dimeric; also called REGN3153; dimeric human FGFR3b", "T1 chain": "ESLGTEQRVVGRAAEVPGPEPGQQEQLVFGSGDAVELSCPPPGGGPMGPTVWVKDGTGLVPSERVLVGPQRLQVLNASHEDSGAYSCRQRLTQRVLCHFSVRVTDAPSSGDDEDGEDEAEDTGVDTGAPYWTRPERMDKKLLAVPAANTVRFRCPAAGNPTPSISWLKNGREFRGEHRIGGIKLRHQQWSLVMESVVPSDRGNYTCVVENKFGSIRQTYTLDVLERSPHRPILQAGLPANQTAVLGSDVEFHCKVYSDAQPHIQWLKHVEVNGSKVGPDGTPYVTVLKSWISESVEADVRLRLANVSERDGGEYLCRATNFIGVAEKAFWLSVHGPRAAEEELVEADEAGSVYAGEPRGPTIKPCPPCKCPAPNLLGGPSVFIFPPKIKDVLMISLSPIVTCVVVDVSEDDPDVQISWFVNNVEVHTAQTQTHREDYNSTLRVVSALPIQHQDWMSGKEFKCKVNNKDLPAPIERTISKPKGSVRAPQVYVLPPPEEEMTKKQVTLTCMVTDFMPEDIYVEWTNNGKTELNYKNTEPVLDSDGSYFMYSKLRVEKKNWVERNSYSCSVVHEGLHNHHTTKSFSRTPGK", "experiment": "SPR Biacore, mAb captured on anti-hFc, 25C"}, "[2]": {"biological_target": "full length human FGFR3b on BaF3 cells (BAF3/FGFR3b, ACL11991) (human, UniProt P22607 23-808)", "experiment": "cell-based or functional assay"}, "[3]": {"biological_target": "full length human FGFR3b S249C on BaF3 cells (BAF3/FGFR3b_S249C, ACL11986) (human, UniProt P22607 23-808)", "experiment": "cell-based or functional assay"}, "[4]": {"biological_target": "T1, human FGFR3b expressed with a …", "experiment": "competition ELISA: 4 nM hFGFR3b-mFc binding to plate-coated hFGF acidic"}},
  "data": [
    {"binder": "B1", "values": [
      {"measurement": "30 nM hFGFR3b.mFc Bind (RU)", "setting": "[1]", "result": 296, "unit": "RU"},
      {"measurement": "Kd", "setting": "[1]", "result": "≤ 22.6", "unit": "pM"},
      {"measurement": "koff", "setting": "[1]", "result": "≤ 1e-05", "unit": "s⁻¹"},
      {"measurement": "kon", "setting": "[1]", "result": 442000, "unit": "M⁻¹ s⁻¹"},
      {"measurement": "t½", "setting": "[1]", "result": "≥ 19.2", "unit": "h"},
      {"measurement": "IC50 [M], BaF3 proliferation (CellTiter-Glo) with 1 nM FGF1 + 5 ug/ml heparin", "setting": "[2]", "result": "6.06e-10", "unit": "M"},
      {"measurement": "Max Blocking (%), BaF3 proliferation (CellTiter-Glo) with 1 nM FGF1 + 5 ug/ml heparin", "setting": "[2]", "result": 98, "unit": "%"},
      {"measurement": "IC50 [M], BaF3 proliferation (CellTiter-Glo) with 1 nM FGF1 + 5 ug/ml heparin", "setting": "[3]", "result": "5.08e-10", "unit": "M"},
      {"measurement": "Max Blocking (%), BaF3 proliferation (CellTiter-Glo) with 1 nM FGF1 + 5 ug/ml heparin", "setting": "[3]", "result": 93.4, "unit": "%"},
      {"measurement": "% Blocking at 200 nM mAb", "setting": "[4]", "result": 95, "unit": "%"},
      {"measurement": "IC50", "setting": "[4]", "result": 2000, "unit": "pM"}
    ]}
  ]
}
